Measured values published in publication PMC8189185 (Structure (London, England : 1993), 2017).

Target: the molecule itself
Experiment: cryo-EM structure

B1: PilA, major pilin subunit of the Pseudomonas aeruginosa strain K (PaK) Type IV pilus (natural protein)
chain: FTLIELMIVVAIIGILAAIAIPQYQNYVARSEGASALASVNPLKTTVEEALSRGWSVKSGTGTEDATKKEVPLGVAADANKLGTIALKPDPADGTADITLTFTMGGAGPKNKGKIITLTRTAADGLWKCTSDQDEQFIPKGCSR
Q: Does B1 bind?
A: Result: binds
